From US5445935

Molecular target: tryptophan repressor (TrpR) (UniProt P0A881 P0A881:2-108)
Assay: FP; dimer-DNA Kd from linked monomer-dimer/DNA binding model (preferred fit; dimer-monomer Kd 3.5 nM); 0.2 nM DNA, 10 mM K phosphate, 0.1 mM EDTA, 10% glycerol, pH

B1: fluorescein-labeled 25-mer trp operator duplex (dsDNA)
DNA 1: CTTGCACTAGTTAACTAGTCAGCAA
DNA 2: TTGCTGACTAGTTAACTAGTGCAAG
Work on B1 yielded a Kd of 230 pM.
